Assay: label from the status in PepcDB records

Sequence	protein production
MNGASLCNSVLLHSHSLSRFQSSSSSCSVYLISSARTTSKYISISHRIRQSFREVIEKRSNGFCSFAVNKRRSGDSVIVESDDDDEEDDEDWGEFDGEDEGEEEEEDEGEFLPMDKMKKWLEKKPRGFGLGKKYETLIEDKLLDEIEQSWKAQAANLNKLKNDPLKSQQLKRDDNLLKGTGETQIGFRVRVTNLPKKKNVHRDLKVAFKEVSGVLSITPAVSGNKKTKDPVCKGFAHVDFKTEIDANRFVKQFTGQSLAFGKVIKQIKCQVVEFTSDDSVSKEVYLDNGFKVQKLPYSGLEGDSSADVVEEEVLLGSGEESDDSEEEVDEREVEDDERNHISSSIESSPIEMTRDSNTKLKFEKQVVKREIREHEELETPLVSFQVNKSEEAAAETHLDDEQSEEAVAETLLNDELDGDDEEEVAEDNLEPLNSSLSSSEENRVDRIRRLEQKLLGKEKLLGGGVGFDKPEAKPARVEGKKKEKKKKTKILVKGQAKKGTKIEIPGSSKR	failed
MNGMLLSRIKKKAMELAEDLKLVDFSFGLPYTWVLVEGIEGRALGVAMTLPEEVQRYTNSIEEPSLLEFIDKADSLNIIERTLGVAAINAVSQYYIDLREAKWIDVTELIQQDEIKRIAIIGNMPPVVRTLKEKYEVYVFERNMKLWDRDTYSDTLEYHILPEVDGIIASASCIVNGTLDMILDRAKKAKLIVITGPTGQLLPEFLKGTKVTHLASMKVTNIEKALVKLKLGSFKGFESESIKYVIEV	not failed
MNGTALNWLELCRTVGPCLRPGGTALTDRALEVCNLSADSLIADVGCGAGGTLYHLEQIGFRRLVGLDPSETLLGDAAPRLETARLIRGEAATIPLRSATVDLLLCECVLSVLPGRSAPLREFARVVKDGGYLVVSDVFSTAGDEATGQAGGLLTRKELLAAVAGNGFTLLRWETHDRLLKEFAVRMILAGECLPDAWKGGTERKGEAARGGLGYFLMVARKAEDPLP	failed
MNHHHHNHHGEAGFKRKVDYLDRPERSEVLAPEEFLQRIPMEKTASILDLGAGTGFLTIPAAKKVENTVFALDLDTKMLELIETKAKTAELANVKTLEASMDDIPLETSSVDVVLASLVLHEADSLADVLREVSRVVKTGGYFASLEFDTKGTDLKGPPMEIQISAEKLKEELAGFGFEVVQNWELDEGMYVSIAEKKE	failed
MNHNYVEVKYPAIFRDEGTYWDVRFPDVPAAQTFGASVQVAADNAANALAIALFEQSLPPASDPQYWRLASTEFVVWITMADVQFGPGADTPEPMN	not failed
MNHSIPTLRTERLTLRPLAMADFPAYRDFMASPRSTGVGGPYDLPSTWGVFCHDLANWHFFGHGALMIDLGETGECIGQIGINHGPLFPEKELGWLLYEGHEGRGYAAEAAVALRDWAFETLNLPTLVSYVSPQNRKSAAVAERIGGTLDPLAPRSDPEDLVYRYHQVKTA	not failed
MNHTLQFPKAPEHLLQALNEVIPKCKLMAQQLPETAISLWLIPPVFPTERLDDDIIRRIWSDTPYWIFCWASGLAMAQWLLAEPHHVKDKVVLDFGAGSGVVAIAAKMAGAKRVICCDIDETSLNACRENALLNNVELEYLNDLYLSESVDILLAADVLYDQSNRFFLDEFLKFAPEVWVADSRVKNFSHPGYIKIDERSATTWPDLDEAKEFRNVSFYKTLEHHHHHH	failed
MNIAFTFKNFEPSEHLKKYARRRFEKLARFVGKSANLELQVALSLDKFRQKAEVQLVGDSINIAAVEQSEDMYATIDLVLDKLEAQLKKHVSRVKERRRSARTNANIDVFTYHTEGEGEDRAIVGTDQFVPKPLHVDEAAMQLDALDYEFLVFLNAESERINVIYRRRNGDFGLIDPVV	failed
MNIAISGASGFIGKHLTEYLTEAGHRVVPLGRPMFREGTSGHLIQALSHCDVIINLAGAPIGKRWTPEYKKELYDSRIKVTHCIIRAMDAVKTKPRLMISASAVGYYPEEGTFDEYTNTRGSGFLAELCYAWEKEARRCPSQTRLVITRFGIVLSPDGGAMEQMLRPLRITRVAGVIGPGTQPFPWIAIQDLCRAMEFIIRHEEASGVFNLVAPQQVSQYAFTQAMAARYHAWMKVVVPRWFFRMRYGEAASFLASGQNVRPTRLLEAGFRFAKPTIEDFFEGTDHAVVDRLDLHRYMGTWYEIARFDHRFERGLSEVTATYTLMPDGTVRVENRGCKHKKPYDVCKTAEGRAKIPDPSQPGKLKVSFFLSFYSDYYVLELDQDEYNYALIGSSSDKYLWILSRAPILPEEIKKKLLDAATRRGYDVKKLIWVEQREKKIM	failed
MNIALARSVVGERLRLLAERMGLVAKRLQDMSQDDTPGRCTPEHCAIQVDSDDEIGDGARAFNQLIQALSLSIETETAVRTFTEMLVSELDVHQLTEQALALLLQHTGADGGAILIEVDGEIRVAASQGIGSAHTLANNDRVRSALRTERRHRVQLPEDLVVDGMLAQFRPKEVIIDPVRHKEVVLGAVVLASGQGFSAEDRNRLDVFERGLALALHNALLYDRLQTLAALDPLTGAYNRRFGMARLREEFRRAVRLNLPLGILMFDIDYFKRINDTYGHLAGDRVLSRVAKTARSVLREGDVLIRYGGEEFIAVLPAASLHDLEYVGERLRHQVDDLMLMDGDQSMHVTVSIGAAAYPDTDVEDETALVDRADKALYAAKSDGRNRLVIS	failed
MNIAVQTLRALAETIVTPSYLLTIIVIMIMFYMKNRRISFMQRMIIGQNIESPFELTLSQITLSIIAGALGSVILSYLGVVFKDNSAIVLLFLISVILMFAGSRFLCFSYSGSILGIISIVIQFLSVNKIADVSSIKFLEIDVVMIMSLVGVLHIVEGIIVMIDGKSGAIPVFTNREDKIIGGFAFKRYWVLPITLLFLLNNADLNGTVNVATPDSWPIIRTAFTVIGKSAVISFMMFYGIIGYKSVTFTKSKRKKTFMSGMAIALYGAVLLGLSQVLKHNLEQQIILCLLAPLLHETMLRLEAYSEVKGKPKFVSGEDGVMVLDVAPNSQAYEMGIKSGDLLLEINDTKIFSEEDITRSIQNMSKYMWFKIKDVQGKLNEISYDKFDRNKKLGAIFVPKGMPKESKIVKFEHKSFDDILDNVNKEDENKKDQK	failed
MNIEEFTSGLAEKGISLSPRQLEQFELYYDMLVEWNEKINLTSITEKKEVYLKHFYDSITAAFYVDFNQVNTICDVGAGAGFPSLPIKICFPHLHVTIVDSLNKRITFLEKLSEALQLENTTFCHDRAETFGQRKDVRESYDIVTARAVARLSVLSELCLPLVKKNGLFVALKAASAEEELNAGKKAITTLGGELENIHSFKLPIEESDRNIMVIRKIKNTPKKYPRKPGTPNKSPIEG	not failed
MNIEIKDTLISEEQLQEKVKELALQIERDFEGEEIVVIAVLKGSFVFAADLIRHIKNDVTIDFISASSYGNQTETTGKVKLLKDIDVNITGKNVIVVEDIIDSGLTLHFLKDHFFMHKPKALKFCTLLDKPERRKVDLTAEYVGFQIPDEFIVGYGIDCAEKYRNLPFIASVVTEESYNLKSR	not failed
MNIFKKIKNLSAEFKQNWFQYLILFTSISILNQFVFIPLFRYITTFVLQAGAIPFISYSNLVIILSEHPFVVFFLLIELALLLFVIYSQFALIILFIKNNFALKASISEFGQCLRHFRLGSLLLLAIYFLLVIPFANVVFRTPLLAKIKIPQFIIDYMTRSGILLAILIIFYLVIFVLAFRFLLTLPIMVIYKTTTREAMKKSAFLMKKNWRKVIGFFVPLGILAIVIMAINVGGAYLLQLIWDTFPGKFALIMATINLTLFQIISEVFLIWVSAVSLYFLVKLVTKNNNEIKEKVTNNKIILITIISIWSLAITGNIIENVFYLAGLDDHVPVTISHRGVNDKNGVQNTIESLKKTAKLKPDYVEIDVHETKDNQFVIMHDENLKKLTGKDKRPKELTLNQLTKLIAKEDGYKGKVVSLDQYMQAAQKLKQKLLIEIKTTPNDSNEFLVKFNKKYGHEILKNHYQLQSLDYRVVTKMQQLNPKIETLYIQPYNLIYPQSVADGYSMEYSTLSSDFIWQAHLQNHVVYAWTVNNKSEMKKMMYEHVDGIITDNISMLNTAIKEFQSRQSYANRILNYMMAFPILD	failed
MNIGVIILAAGEGKRFGGDKLLAKIDNTPIIMRTIRIYGDLEKIIIVGKYVNEMLPLLMDQIVIYNPFWNEGISTSLKLGLRFFKDYDAVLVALGDMPFVTKEDVNKIINTFKPNCKAVIPTHKGERGNPVLISKSLFNEIEKLRGDVGARVILNKIKIEELCFIECSEGVLIDIDKKEDLMRLRDFHP	failed
MNIILNGGPAELHGTTVADLIAQTAPQKPFAVAVNTVFVPKGAYAETVLNENDKIDIVRPVVGG	failed
MNILLAMIPAFFWGTTYAVTQFTLPDWPPVLLGALRALPAGLLLLAIKPSLPKKHEWKVLLVLGTINIAFFFGLIFVMALTLPSAISGVGMISVPVFAMLFGWAVYKRQPSAIQGISGAVLIALAWFLFDPSSISLNPIGLGAMLAAIMCIVIGSSVTKSLGTKMHWWTVLTWQLILGGVLLSIAAAVLATINPQPYVHAVQNIDMTNTLGLLWVIVLNTALGYGMYVWLLQRMSVVDFTFGGIANPIAGIVSGLLLLGENFTPLQYSLMVGMIVMSLLPQILTSLRARKEAITV	failed
MNILLLIGGLILILLGANGLTDGAASVAKRFRIPSIVIGLTIVAFGTSAPELTVSVASALKGSADIAIGNVVGSNIFNTLMIVGCTALFAPIIITRNTLRKEIPLCILSSVVLLICANDIFLDNATENILNRVDGLLLLCFFAIFMGYTFAIAFPKSSAAPEPAAPEHTAPEEEIKLLSWWKSILYIIGGLAALIYGGQLFVNGATGIARSMGVSESIIGLTLVAGGTSLPELATSIVAALKKNPEMAIGNVIGSNLFNIFFVLGCSASITPLHLSGITNFDLFTLVGSSILLWLFGLFFAKRTITRIEGSIMILCYVAYTVVLIYNS	failed
MNILLRLQLFFQITGHYASYFLAYIFETIFFLIFVFVSLIAMIYLFRKYMARLQLRYGPNRVGKFGSLQLIADAIKLVGKESILPKLRDDFAYKTAPYIVFIGLVVGFILIPYGDFYWIGSLTITHSDVSLILFFGAIAMMPIGEILAGISSHNKYALLGAMRGVAKDVSFEVPMMLSAIALVMMDSAVNKTPLEFSSLVSTQFIPFGILQPLGLFVFMVAMIARSSYTPFDLSESDSEIVSGYSTEYSGMRFGLFYMGMFGSIFLGSLVISLLYLGGYNGPYSSYAGFIYLLIKGLIMVLISFLIWLSMPRIRIDRFVNFGWKILLPIAIINLIWAGFLTLGVIS	failed
MNILSRIFARTPSLRTRVVVATAIGAAIPVLIVGTVVWVGITNDRKERLDRRLDEAAGFAIPFVPRGLDEIPRSPNDQDALITVRRGNVIKSNSDITLPKLQDDYADTYVRGVRYRVRTVEIPGPEPTSVAVGATYDATVAETNNLHRRVLLICTFAIGAAAVFAWLLAAFAVRPFKQLAEQTRSIDAGDEAPRVEVHGASEAIEIAEAMRGMLQRIWNEQNRTKEALASARDFAAVSSHELRTPLTAMRTNLEVLSTLDLPDDQRKEVLNDVIRTQSRIEATLSALERLAQGELSTSDDHVPVDITDLLDRAAHDAARIYPDLDVSLVPSPTCIIVGLPAGLRLAVDNAIANAVKHGGATLVQLSAVSSRAGVEIAIDDNGSGVPEGERQVVFERFSRGSTASHSGSGLGLALVAQQAQLHGGTASLENSPLGGARLVLRLPGPS	not failed
MNIQLNGQCRCIPETSSIAGLLAEEGFSERRVAVEVNGEIVPRTLHVNYVLREGDRVEIVHALGGG	failed
MNIQRETSGHIAAIVTILIWGTTFISTKVLLADFSPMEILFYRFLMGFIALILVRPNMIPFRNWRQELLFAGAGLFGVTLYFLLENIALTYTYASNVGMIVSIIPMITAVLAHFLLEGEKLRLTFLIGFISALIGLLLITFNGNVVLRLNPLGDIMAAGAALVFGGYSIFMKKLSAYEYHIIELTQRVFLYGLLFMVPALFLFDFHFDLSRFSSASNILNMLFLGIGASALCFATWNYSVGVLGAVKSSAYIYMVPVITIAASVLILHENMTWIALLGGALTLLGLYISELKPKAKLLENGCKMDA	failed

Source: a protein production outcome set (Wang et al. 2014)
